Assay results as given in US20190353654A1.
One block for each binder: values may come before it.

Key:
[1] = target: CXCL12 24-88 (UniProt P48061); assay: MicroScale Thermophoresis, labeled receptor, ligand titrated, in 50% human serum
[2] = target: CXCL12 24-88 (UniProt P48061); assay: MicroScale Thermophoresis, labeled receptor, ligand titrated, in buffer (1x PBS, 5 mM DTT)
[3] = target: CXCL12 24-88 (UniProt P48061); assay: MicroScale Thermophoresis, later independent purification and refolding from E. coli inclusion bodies
[4] = target: CXCL12 24-88 (UniProt P48061); assay: MicroScale Thermophoresis, earlier independent purification and refolding from E. coli inclusion bodies
[5] = target: CCL5 26-91 (UniProt P13501); assay: MicroScale Thermophoresis, earlier independent purification from SF9 cells
[6] = target: CCL5 26-91 (UniProt P13501); assay: MicroScale Thermophoresis, labeled receptor, ligand titrated, in 50% human serum
[7] = target: CCL5 26-91 (UniProt P13501); assay: MicroScale Thermophoresis, labeled receptor, ligand titrated, in buffer (1x PBS, 5 mM DTT)

Chain of CXCL12 24-88 (P48061 24-88 limits assumed, form in doubt): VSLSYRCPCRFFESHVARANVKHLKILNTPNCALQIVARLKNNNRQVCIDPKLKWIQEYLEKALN
Chain of CCL5 26-91 (P13501 26-91 limits assumed, form in doubt): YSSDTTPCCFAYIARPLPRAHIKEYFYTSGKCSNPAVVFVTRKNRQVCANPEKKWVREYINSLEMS

- Kd [1]: 6.6 nM
- Kd [2]: 2.2 nM
B1: CXCR7^QTY (receptor, not shown: small tags and cut ends)
chain: MDLHLFDYSEPGNFSDISWPCNSSDCIVVDTVMCPNMPNKSTQQYTQSYTYTYTYTTGMTANSVVVWVNIQAKTTGYDTHCYTQNQATADQWTTQTTPTWTTSLVQHNQWPMGELTCKTTHQTYSTNQYGSTYYQTCMSVDRYLSITYFTNTPSSRKKMVRRTTCTQTWQQAYCTSQPDTYYQKTVTSASNNETYCRSFYPEHSIKEWLIGMEQTSTTQGYATPYSTTATYYYQLARAISASSDQEKHSSRKTTYSYTTTYQTCWQPYHTATQLDIFSILHYIPFTCRLEHALFTAQHTTQCQSQTHCCTNPTQYSYTNRNYRYELMKAFIFKYSAKTGLTKLIDASRVSETEYSALEQSTK
modifications: The receptor was labelled with NT647 (RED-NHS dye on lysines, positions not defined) for MST. The letters do not carry this.

- Kd [3]: 13 nM
- Kd [4]: 17 nM
- Kd [1]: 44.7 nM
- Kd [2]: 11.2 nM
B2: CXCR4^QTY (receptor, not shown: small tags and cut ends)
chain: MEGISIYTSDNYTEEMGSGDYDSMKEPCFREENANFNKTYQPTTYSTTYQTGTTGQGQTTQTMGYQKKQRSMTDKYRQHQSTADQQYTTTQPYWATDATANWYFGNFQCKATHTTYTTQQYSSTQTQAYTSQDRYLAIVHATNSQRPRKQQAEKTTYTGTWTPAQQQTTPDYTYANVSEADDRYICDRFYPNDLWTTTYQYQHTMTGQTQPGTTTQSCYCTTTSKLSHSKGHQKRKALKTTTTQTQAYYACWQPYYTGTSTDSFILLEIIKQGCEFENTVHKWTSTTEAQAYYHCCQQPTQYAYQGAKYKTSAQHAQTSTSRGSSQKTQSKGKRGGHSSTSTESESSSFHSS
modifications: Receptor labelled with NT647 dye (RED-NHS, on amines) for MST; sites not specified

- Kd [5]: 42 nM
- Kd [6]: 45.9 nM
- Kd [7]: 33.9 nM
B3: CCR5^QTY (receptor, not shown: small tags and cut ends)
chain: MDYQVSSPIYDINYYTSEPCQKINVKQIAARQQPPQYSQTFTYGFTGNMQTTQTQINCKRLKSMTDIYLQNQAISDQYYQQTTPYWAHYAAAQWDFGNTMCQQQTGQYFTGYYSGTYYTTQQTTDRYLAVVHAVFALKARTTTYGTTTSTTTWTTATYASQPGTTYTRSQKEGLHYTCSSHFPYSQYQFWKNFQTLKITIQGQVQPQQTMVTCYSGTQKTLLRCRNEKKRHRAVRQTFTTMTTYYQYWAPYNTTQQLNTFQEFFGLNNCSSSNRLDQAMQVTETQGMTHCCTNPTIYAYVGEKFRNYLLVFFQKHIAKRFCKCCSIFQQEAPERASSVYTRSTGEQEISVGL
modifications: Receptor labelled with NT647 dye (RED-NHS, on amines) for MST; sites not specified
